# Measurements reported in patent US20210130420A1, “RECOMBINANT BINDING PROTEINS TARGETING HER2 AND SERUM ALBUMIN, AND THEIR USES” (Molecular Partners AG, priority 2016, published 2021).
# “And” between values parts separate entries of the source, which are not always exact repeats. Equal entries are not always repeated.
# B1: Protein #21: SEQ ID NO: 21; HER2 binding domains (SEQ ID NOs: 16, 17) flanked by two serum albumin binding domains (SEQ ID NO: 14), SEQ ID NO: 9 linkers (protein)
# chain: GSDLGKKLLEAARAGQDDEVRELLKAGADVNAKDYFSHTPLHLAARNGHLKIVEVLLKAGADVNAKDFAGKTPLHLAANEGHLEIVEVLLKAGADVNAQDIFGKTPADIAADAGHEDIAEVLQKAAGSPTPTPTTPTPTPTTPTPTPTGSDLGIKLLFAAAKGQDDEVRELLKAGADVNAKDFQGVTPLHIAAQSGHLEIVEVLLKAGADVNAKDVTGDTPLHLAAQHGHLEIVEVLLKAGADVNAQDERGWTPADLAADWGHEDIAEVLQKAAGSPTPTPTTPTPTPTTPTPTPTGSDLGKKLLEAARAGQDDEVRELLKAGADVNAKDEYGLTPLYLATAHGHLEIVEVLLKAGADVNAVDAIGFTPLHLAAFIGHLEIAEVLLKAGADVNAQDKFGKTPADIAAGAGNEDIAEVLQKAAGSPTPTPTTPTPTPTTPTPTPTGSDLGKKLLEAARAGQDDEVRELLKAGADVNAKDYFSHTPLHLAARNGHLKIVEVLLKAGADVNAKDFAGKTPLHLAANEGHLEIVEVLLKAGADVNAQDIFGKTPADIAADAGHEDIAEVLQKAA
# modifications: Protein comprising four designed ankyrin repeat domains
# Columns and labels:
# [1] = Storage stability in PBS analysed by size-exclusion chromatography; format: physicochemical; settings: 10 mg/ml in PBS
# Protocol: A storage stability improvement is also observed, when testing the storage stability of Protein #21 and Protein #22 (recombinant binding proteins consisting of the amino acid sequences corresponding to SEQ ID NOs: 21 and 22, respectively). Protein #21 and Protein #22 are prepared as described in Example 1, samples are concentrated to 10 mg/ml in PBS and stored for 1 month at −80° C. in or at 40° C. in glass vials, followed by analysis on standard size-exclusion chromatography.
# [2] = target: extracellular domains of HER3 (Homo sapiens, UniProt P21860); assay: Surface plasmon resonance interaction with HER3; format: binding
# [3] = target: extracellular domains of EGFR (Homo sapiens, UniProt P00533); assay: Surface plasmon resonance interaction with EGFR; format: binding
# [4] = tested on: SKBR-3, SKOV-3, NCI-N87, ZR-75-30, HCC1419, or MDA-MB175; assay: Proliferation inhibition on a variety of cancer cell-lines; format: cell-based
# GXA281 = assay: Gastric cancer PDX mouse model GXA281; format: in vivo; settings: FIG. 4E; Protein #21 40 mg/kg every three days for 6 times i.v.; Lapatinib 100 mg/kg/day for 21 days
# Protocol: In a similar experiment, Protein #21 was further tested in the gastric cancer PDX mouse model GXA281, well known to the person skilled in the art, in comparison to the standard of care Lapatinib (FIG. 4E). Briefly, tumor implantation and tumor growth monitoring was done as described above. Lapatinib was dosed at 100 mg/kg/day for 21 days daily […]. and Protein #21 at 40 mg/kg every three days for 6 times i.v.
# [5] = Pharmacokinetic analysis in cynomolgus monkey; format: in vivo
# Protocol: The measurements shown in this example are the result of a half-life engineering effort as described in Example 11. Protein #21-His, Protein #23-His, and Protein #24-His were expressed and purified as described in Example 1. The pharmacokinetic properties of the proteins were assessed in cynomolgus monkey. Proteins were administered via intravenous infusion for 30 min at a target dose level of between 1 mg/kg to cynomolgus monkeys. Blood samples were collected pre-dose and again at selected time points, for example 5 min, 10 min, 0.5 hours, 1 hour, 2 hours, 4 hours, 8 hours, 12 hours, 24 hours, 48 hours, 72 hours, 96 hours, 120 hours, 144 hours, 168 hours, 192 hours, 216 hours, and 240 hours post-end of infusion (i.e. post-injection). The blood samples were allowed to stand at room temperature and were centrifuged to generate serum, followed by storage at −80° C. pending analyses. Pharmacokinetic parameters were determined using procedures well known to the person skilled in the art. Serum concentrations of proteins were determined by sandwich ELISA using a rabbit monoclonal anti-designed ankyrin repeat domain antibody as capture reagent and murine monoclonal anti-designed ankyrin repeat domain antibody as detection reagent, and using a standard curve. Pharmacokinetic parameters were determined using standard software such as Phoenix WinNonLin (Certara, Princeton, USA) or Graph Pad Prism (GraphPad Software, La Jolla, USA) and standard analyses such as non-compartmental analyses. […] Target mediated clearance is well-known to the person skilled in the art and is known from e.g. antibodies targeting HER2.
# Similarly, Protein #21-His was expressed and purified as described in Example 1. The pharmacokinetic properties of the proteins were assessed in cynomolgus monkey as described above at 1 mg/kg, 5 mg/kg and 10 mg/kg.
# Similar results are observed when testing Protein #21 (expressed and purified as described in Example 1). The pharmacokinetic properties of the proteins are assessed in cynomolgus monkey as described above at 1 mg/kg, 10 mg/kg and 100 mg/kg. Pharmacokinetic parameters are evaluated as described above.
# For the studies in this example Protein #21-His, Protein #24-His, Protein #28-His, Protein #29-His, and Protein #30-His were prepared according to Example 1. Protein #28-His was additionally PEGylated using a 40 kDa PEG moiety (NOF Sunbright GL2-400MA) by maleimid coupling of the PEG-moiety onto the free C-terminal cysteine of Protein #28-His, followed by purification to homogeneity using standard purification methods, procedures well known to the person skilled in the art. Pharmacokinetic analyses in mouse or cynomolgus monkey were performed as described in Examples 8 and 9.
# AKT = assay: Phospho-proteome mass spectrometry of BT474 cells; format: cell-based, human; settings: 100 nM, 18 hours
# Source text: (§1) Protein #21 was expressed and purified as described in Example 1. […] Cells were then subjected to a phospho-proteome mass-spectrometry analysis as described by Britton, D., et al. (Britton, D., Zen, Y., Quaglia, A., Selzer, S., Mitra, VI., Lössner, C., Jung, S., Bohm, G., Schmid, P., Prefot, P., Hoehle, C., Koncarevic, S., Gee, J., Nicholson, R., Ward, M., Castellano, L., Stebbing, J., Zucht, H. D., Sarker, D., Heaton, N., and Pike, I., 2014. PLOS One 9 (3), e90948).
# RAF = assay: Phospho-proteome mass spectrometry of BT474 cells; format: cell-based, human; settings: 100 nM, 18 hours
# Source text: as §1
# RPS6KB1/S6 Kinase = assay: Phospho-proteome mass spectrometry of BT474 cells; format: cell-based, human; settings: 100 nM, 18 hours
# Source text: as §1
# mTOR = assay: Phospho-proteome mass spectrometry of BT474 cells; format: cell-based, human; settings: 100 nM, 18 hours
# Source text: as §1
# HER3 = assay: Phosphorylation state ELISA, BT474 cells; format: cell-based, human; settings: 100 nM, 18 hours
# HER2 [6] = target: T1, HER2 (Homo sapiens, UniProt P04626); assay: Phospho-proteome mass spectrometry of BT474 cells; format: cell-based; design: host or cells: BT474; settings: 100 nM, 18 hours
# Source text: as §1
# HER2 [7] = target: T1, HER2; assay: Phosphorylation state ELISA, BT474 cells; format: cell-based; design: BT474 cells were treated for 18 hours with either Protein #21 (100 nM); host or cells: BT474; settings: 100 nM, 18 hours
molecule,measurement,setting,value
B1,monomeric species compared to Protein #22,[1]; 1 month at 40° C.,significantly more monomeric species
same,elution profiles upon storage at −80° C.,[1]; 1 month at −80° C.,equivalent elution profiles
same,interaction with extracellular domains of HER3,[2],does not interact
same,interaction with extracellular domains of EGFR,[3],does not interact
same,proliferation inhibition on cancer cell-lines,[4],strong proliferation inhibition
same,inhibition of tumor growth,GXA281,strong inhibition of tumor growth compared to Lapatinib
same,dose dependence of the terminal half-life,"[5]; 1 mg/kg, 10 mg/kg and 100 mg/kg",dose dependent increase
same,pharmacokinetic properties compared to PEGylated Protein #28,[5]; 5 mg/kg doses,markedly improved pharmacokinetic properties
same,terminal half-life,[5]; 100 mg/kg,109.5 h and 130.6 h
same,AKT S124 phosphorylation,AKT,0.99 fold change to PBS
same,AKT S129 phosphorylation,AKT,0.93 fold change to PBS
same,RAF S642 phosphorylation,RAF,0.81 fold change to PBS
same,RAF T631/T638/T640/T641/S642 phosphorylation,RAF,0.48 fold change to PBS
same,RPS6KB1/S6Kinase S441/T444/S447 phosphorylation,RPS6KB1/S6 Kinase,0.63 fold change to PBS
same,RPS6KB1/S6Kinase T444/S447 phosphorylation,RPS6KB1/S6 Kinase,0.92 fold change to PBS
same,mTOR S2448/S2454 phosphorylation,mTOR,0.79 fold change to PBS
same,HER3 Pan-Phospho-Tyrosine,HER3,0.45 fold change to PBS
same,HER2 S1073/S1078/S1083 phosphorylation,HER2 [6],0.35 fold change to PBS
same,HER2 S1174 phosphorylation,HER2 [6],0.59 fold change to PBS
same,HER2 T772 phosphorylation,HER2 [6],10.27 fold change to PBS
same,HER2 T1172/S1174 phosphorylation,HER2 [6],0.44 fold change to PBS
same,HER2 T1240 phosphorylation,HER2 [6],0.09 fold change to PBS
same,HER2 Y1139/S1151 phosphorylation,HER2 [6],0.88 fold change to PBS
same,HER2 Pan-Phospho-Tyrosine,HER2 [7],0.04 fold change to PBS
